According to patent US20210301005A1 (Genentech, published 2021):
Changes are numbered by the printed parent chain.

T1: human TGFβ2, mature receptor-binding domain (human, UniProt P09858 303-414 (pig entry), The mature TGFβ2 is a disulfide-linked homodimer of this 112-residue chain. The 4A11 epitope spans both monomers (p-1207).)
T1 sequence: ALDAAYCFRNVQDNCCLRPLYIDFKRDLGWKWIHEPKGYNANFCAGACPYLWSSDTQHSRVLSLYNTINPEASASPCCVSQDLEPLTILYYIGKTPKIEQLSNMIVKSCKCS

T2: human TGFβ3, mature dimeric form (human, UniProt P10600 301-412)
T2 sequence: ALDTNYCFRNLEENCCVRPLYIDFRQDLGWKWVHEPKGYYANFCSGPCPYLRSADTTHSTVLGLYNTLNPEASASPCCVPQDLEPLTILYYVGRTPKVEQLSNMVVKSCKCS

B1: h4A11.v1 (antibody, human IgG1, kappa, N297G, V domains shown)
VH: EQQLVESGGGLVQPGGSLRLSCAVSGFSLSSYTVNWVRQAPGKGLEWIGYISYGGSAYYASWANGRFTISKDSAKNSVYLQMNSLRAEDTAVYFCARHMQVGGAPTGSMAAFDPWGPGTLVTVSS
VL: DAVLTQSPDSLAVSLGERATINCQSSQSVYNNNYLSWFQQKPGQPPKLLIYGASTLTSGVPDRFSGSGSGTDFTLTISSLQAEDVAVYYCAGGYSGSSDKYAFGGGTKVEIKR
B2: h4A11.v3 (antibody, human IgG1, kappa, N297G, V domains shown)
VH: EQQLQESGPGLVKPSETLSLTCTVTGFSLSSYTVNWVRQPAGKGLEWIGYISYGGSAYYASWANGRFTISKDSSKNQVSLKLSSVTAADTAVYFCARHMQVGGAPTGSMAAFDPWGPGTLVTVSS
VL: B1 VL
B3: h4A11.v2 (antibody, human IgG1, kappa, N297G, V domains shown)
VH: B1 VH
VL: DAQLTQSPSSLSASVGDRVTITCQSSQSVYNNNYLSWFQQKPGKPPKLLIYGASTLTSGVPSRFSGSGSGTDFTLTISSLQPEDFATYYCAGGYSGSSDKYAFGGGTKVEIKR
B4: h6F12.v1.2 (antibody, human IgG1, kappa, N297G, V domains shown)
VH: EVTLKESGPVLVKPTETLTLTCTVSGFSLTTYNVHWVRQPPGKALEWMGLIWNTGGTRYNSALKSRLTISKDTSKSQVVLTMTNMDPVDTATYYCARDPVPNKWHFDFWGPGTLVTVSS
VL: DIQMTQSPSTLSASVGDRVTITCLASEDIYSNLAWYQQKPGKSPKLLIYDARSLQDGVPSRFSGSGSGPEYTLTISSLQPDDFATYFCQQHHAYPFTFGQGTKVEIKR
B5: h6F12.v1.7 (antibody, human IgG1, kappa, N297G, V domains shown)
VH: B4 VH with M48L
VL: B4 VL with G66E
B6: h6F12.v1.3 (antibody, human IgG1, kappa, N297G, V domains shown)
VH: B4 VH
VL: B4 VL with G66E, P69T
B7: h6F12.v1.4 (antibody, human IgG1, kappa, N297G, V domains shown)
VH: B4 VH
VL: B4 VL with G66E, Y71F
B8: h6F12.v1.8 (antibody, human IgG1, kappa, N297G, V domains shown)
VH: B4 VH with G49A
VL: B4 VL with G66E
B9: h6F12.v1.5 (antibody, human IgG1, kappa, N297G, V domains shown)
VH: B4 VH
VL: B4 VL with G66E, F87Y
B10: h6F12.v1.9 (antibody, V domains shown)
VH: B4 VH with P111R
VL: DIQMTQSPSTLSASVGDRVTITCLASEDIYSNLAWYQQKPGKSPKLLIYDARSLQDGVPSRFSGSESGPEYTLTISSLQPDDFATYFCQQHHAYPFTFGQGTKVEIK
B11: h6F12.v1.6 (antibody, human IgG1, kappa, N297G, V domains shown)
VH: B4 VH with V37I
VL: B4 VL with G66E
B12: h2A10.v2.1 (antibody, human IgG1, kappa, N297G)
heavy: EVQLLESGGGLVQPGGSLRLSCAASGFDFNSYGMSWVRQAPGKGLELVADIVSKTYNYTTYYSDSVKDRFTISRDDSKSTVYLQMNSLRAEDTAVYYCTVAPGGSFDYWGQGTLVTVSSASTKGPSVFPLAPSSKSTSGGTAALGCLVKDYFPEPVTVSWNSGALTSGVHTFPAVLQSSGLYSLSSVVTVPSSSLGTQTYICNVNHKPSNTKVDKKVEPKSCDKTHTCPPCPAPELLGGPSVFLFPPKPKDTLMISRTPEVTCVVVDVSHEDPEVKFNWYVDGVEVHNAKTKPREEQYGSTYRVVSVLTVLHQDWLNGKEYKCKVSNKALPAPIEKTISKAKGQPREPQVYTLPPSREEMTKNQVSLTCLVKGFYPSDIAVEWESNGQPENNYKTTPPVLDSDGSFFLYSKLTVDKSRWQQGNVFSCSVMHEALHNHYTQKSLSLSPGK
light: DIQMTQSPSSLSASVGDRVTITCRASQSVSISRFNLMHWYQHKPGKQPKLLIYRASNLASGIPSRFSGSGSGTDFTLTISSLQPEDFATYYCQHSRESPWTFGGGTKVEIKRTVAAPSVFIFPPSDEQLKSGTASVVCLLNNFYPREAKVQWKVDNALQSGNSQESVTEQDSKDSTYSLSSTLTLSKADYEKHKVYACEVTHQGLSSPVTKSFNRGEC
B13: h2A10.v2.6 (antibody, human IgG1, kappa, N297G, V domains shown)
VH: EVQLLESGGGLVQPGGSLRLSCAASGFDFNSYGMSWVRQAPGKGLELVSDIVSKTYNYTTYYSDSVKDRFTISRDDSKSTVYLQMNSLRAEDTAVYYCTVAPGGSFDYWGQGTLVTVSS
VL: DIQLTQSPSSLSASVGDRVTITCRASQSVSISRFNLMHWYQHKPGKQPKLLIYRASNLASGIPSRFSGSGSGTDFTLTISSLQPEDFATYYCQHSRESPWTFGGGTKVEIKR
B14: h2A10.v2.4 (antibody, human IgG1, kappa, N297G, V domains shown)
VH: B13 VH with S49A
VL: B13 VL with I62V
B15: h2A10.v2.2 (antibody, human IgG1, kappa, N297G, V domains shown)
VH: B13 VH with S49A
VL: B13 VL with H42Q
B16: h2A10.v2.9 (antibody, human IgG1, kappa, N297G, V domains shown)
VH: B13 VH with S49A, V81L
VL: B13 VL
B17: h2A10.v2.8 (antibody, human IgG1, kappa, N297G, V domains shown)
VH: B13 VH with S49A, S79N
VL: B13 VL
B18: h2A10.v2.3 (antibody, human IgG1, kappa, N297G, V domains shown)
VH: B13 VH with S49A
VL: B13 VL with Q47A

molecular target: T3, human TGFβ1, mature receptor-binding domain (human, UniProt P01137 279-390); test: cell-based or functional assay
T3 sequence (P01137 279-390 limits assumed): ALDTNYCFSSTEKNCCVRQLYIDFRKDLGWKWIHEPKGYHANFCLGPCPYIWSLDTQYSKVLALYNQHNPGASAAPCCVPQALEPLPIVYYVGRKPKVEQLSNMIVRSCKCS

Binder	HEKBlue TGFβ blocking IC50 [nM]
B1	> 200
B2	> 200
B3	> 200

molecular target: T1, human TGFβ2, mature receptor-binding …; test: cell-based or functional assay

Binder	HEKBlue TGFβ blocking IC50 [nM]
B1	> 200
B2	3.9
B3	> 200

molecular target: T2, human TGFβ3, mature dimeric form; test: cell-based or functional assay

Binder	HEKBlue TGFβ blocking IC50 [nM]
B1	> 200
B2	0.23
B3	> 200

molecular target: T3, human TGFβ1, mature receptor-binding …; test: cell-based or functional assay; remark: another data set of the same source

Binder	HEKBlue TGFβ blocking IC50 [nM]
B4	> 200
B5	> 200
B6	> 200
B7	> 200
B8	> 200
B9	> 200
B10	> 200
B11	> 200

molecular target: T1, human TGFβ2, mature receptor-binding …; test: cell-based or functional assay; remark: another data set of the same source

Binder	HEKBlue TGFβ blocking IC50 [nM]
B4	0.02
B5	0.03
B6	0.01
B7	0.02
B8	0.08
B9	0.04
B10	0.16
B11	0.11

molecular target: T2, human TGFβ3, mature dimeric form; test: cell-based or functional assay; remark: another data set of the same source

Binder	HEKBlue TGFβ blocking IC50 [nM]
B4	> 200
B5	> 200
B6	> 200
B7	> 200
B8	> 200
B9	> 200
B10	> 200
B11	> 200

molecular target: T3, human TGFβ1, mature receptor-binding …; test: cell-based or functional assay; remark: another data set of the same source

Binder	HEKBlue TGFβ blocking IC50 [nM]
B12	> 200
B13	> 200
B14	> 200
B15	> 200
B16	> 200
B17	> 200
B18	> 200

molecular target: T1, human TGFβ2, mature receptor-binding …; test: cell-based or functional assay; remark: another data set of the same source

Binder	HEKBlue TGFβ blocking IC50 [nM]
B12	> 200
B13	> 200
B14	> 200
B15	> 200
B16	> 200
B17	> 200
B18	> 200

molecular target: T2, human TGFβ3, mature dimeric form; test: cell-based or functional assay; remark: another data set of the same source

Binder	HEKBlue TGFβ blocking IC50 [nM]
B12	0.01
B13	0.01
B14	0.01
B15	0.01
B16	0.01
B17	0.01
B18	0.01

molecular target: T1, human TGFβ2, mature receptor-binding …; test: cell-based or functional assay; remark: another data set of the same source

Binder	fold drop in blocking against h6F12.v1 [fold]
B8	4
B9	2
B10	5 to 8
B11	5 to 8

molecular target: T1, human TGFβ2, mature receptor-binding …; test: BIAcore T200
Experimental: (§1) For binding affinity determinations of all humanized 2A10 antibodies, Surface Plasmon Resonance (SPR) measurement with a BIAcore™-T200 instrument was used. Briefly, series S CM5 biosensor chip with protein A was first applied to capture each humanized 2A10 variant to achieve approximately 100 response units (RU) on each flow cell, following by injection of 3-fold serial dilutions of human TGFβ1, TGFβ2 or TGFβ3 (0.02 nM to 5 nM) in HBS-EP buffer (0.01M HEPES pH 7.4, 0.15M NaCl, 3 mM EDTA and 0.05% v/v surfactant P20) at 25° C. with a flow rate of 50 μl/min for kinetics measurement. Association rates (ko.) and dissociation rates (koff) were calculated using a simple one-to-one Langmuir binding model (BIAcore T200 evaluation software version 2.0) to determine the equilibrium dissociation constant (KD), which was calculated as the ratio koff/kₒₙ.

Binder	Kd [nM]
B12	0.238
B13	0.249
B14	0.19
B15	0.124
B16	0.768
B17	0.365
B18	0.242

molecular target: T2, human TGFβ3, mature dimeric form; test: BIAcore T200
Experimental: as §1

Binder	Kd [nM]
B12	0.0031
B13	0.0015
B14	0.0021
B15	0.0012
B16	0.0007
B17	0.0012
B18	0.0015

molecular target: T1, human TGFβ2, mature receptor-binding …; test: BIAcore T200; remark: another data set of the same source
Experimental: as §1
(§2) Binding affinity determinations of all humanized 4A11 antibodies were performed using SPR measurement with a BIAcore™-T200 instrument, as described above in Example 6 ([…]).

Binder	Kd [nM]
B1	0.0046
B2	0.0096
B3	0.0014

molecular target: T2, human TGFβ3, mature dimeric form; test: BIAcore T200; remark: another data set of the same source
Experimental: as §1, §2

Binder	Kd [nM]
B1	0.0144
B2	0.0121
B3	0.0133
